# Test results published in US20050158807A1.
# Molecular target: Fas receptor on cultured mouse thyroid follicular cells (mouse) (UniProt P25446)
# Experiment: cell-based or functional assay
# Sequence of UniProt P25446 (P25446 22-327): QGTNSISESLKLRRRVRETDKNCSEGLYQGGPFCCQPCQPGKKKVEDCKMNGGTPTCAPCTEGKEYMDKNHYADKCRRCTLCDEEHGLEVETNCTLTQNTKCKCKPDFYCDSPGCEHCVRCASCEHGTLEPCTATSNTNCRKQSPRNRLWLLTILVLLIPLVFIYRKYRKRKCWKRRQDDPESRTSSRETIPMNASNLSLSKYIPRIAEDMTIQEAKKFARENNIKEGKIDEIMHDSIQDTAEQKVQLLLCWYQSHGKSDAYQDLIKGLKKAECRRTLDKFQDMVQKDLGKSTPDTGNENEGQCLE
substance,measurement,value
clone Jo2 anti-Fas antibody (Pharmingen),"percentage of proliferation increase of anti-Fas versus control cultures ([3H] thymidine), 48 h",37%
same,"percentage of proliferation increase of anti-Fas versus control cultures ([3H] thymidine), 72 h",49%
same,"percentage of proliferation increase of anti-Fas versus control cultures ([3H] thymidine), 96 h",61%
